# Columns and labels:
# [1] = target: HLA-A*03:01; assay: IEDB peptide-MHC binding, purified MHC/competitive/fluorescence; filed as Kd, often an IC50 or EC50 that approximates it; ≥ and ≤ were set here for values at or beyond the usual limits of such assays; details: source organism: Escherichia coli str. K-12 substr. MG1655
# [2] = target: HLA-B*58:01; assay: as above
# [3] = target: HLA-B*15:01; assay: as above
# [4] = target: HLA-B*40:01; assay: as above
# [5] = target: HLA-C*03:03; assay: IEDB peptide-MHC binding, purified MHC/direct/fluorescence; filed as Kd, often an IC50 or EC50 that approximates it; ≥ and ≤ were set here for values at or beyond the usual limits of such assays; details: source organism: Mycobacterium tuberculosis C
# [6] = target: HLA-C*08:02; assay: as above
# [7] = target: HLA-B*08:01; assay: IEDB peptide-MHC binding, purified MHC/competitive/fluorescence; filed as Kd, often an IC50 or EC50 that approximates it; ≥ and ≤ were set here for values at or beyond the usual limits of such assays; details: source organism: Escherichia coli
# [8] = target: HLA-C*14:02; assay: IEDB peptide-MHC binding, purified MHC/direct/fluorescence; filed as Kd, often an IC50 or EC50 that approximates it; ≥ and ≤ were set here for values at or beyond the usual limits of such assays
# [9] = target: HLA-B*07:02; assay: IEDB peptide-MHC binding, purified MHC/competitive/fluorescence; filed as Kd, often an IC50 or EC50 that approximates it; ≥ and ≤ were set here for values at or beyond the usual limits of such assays; details: source organism: Yersinia pestis Antiqua
# [10] = target: HLA-A*03:01; assay: IEDB peptide-MHC binding, purified MHC/competitive/fluorescence; ≥ and ≤ were set here for values at or beyond the usual limits of such assays; details: source organism: Sudan ebolavirus
# [11] = target: HLA-A*11:01; assay: as above; details: source organism: Sudan ebolavirus
# [12] = target: HLA-A*01:01; assay: as above
# [13] = target: HLA-A*02:01; assay: as above; details: source organism: Zaire ebolavirus
# [14] = target: HLA-B*07:02; assay: as above
# [15] = target: HLA-B*18:01; assay: IEDB peptide-MHC binding, purified MHC/direct/fluorescence; filed as Kd, often an IC50 or EC50 that approximates it; ≥ and ≤ were set here for values at or beyond the usual limits of such assays
# [16] = target: HLA-A*03:01; assay: as above; details: source organism: Mycobacterium tuberculosis
# [17] = target: HLA-B*27:05; assay: as above; details: source organism: Mycobacterium tuberculosis
# [18] = target: HLA-A*11:01; assay: as above; details: source organism: Mycobacterium tuberculosis
# [19] = target: HLA-B*40:01; assay: as above
# [20] = target: HLA-A*29:02; assay: as above; details: source organism: Mycobacterium tuberculosis
# [21] = target: HLA-A*31:01; assay: as above; details: source organism: Mycobacterium tuberculosis
# [22] = target: HLA-B*08:03; assay: as above; details: source organism: Mycobacterium tuberculosis str. Haarlem
# [23] = target: HLA-A*02:01; assay: as above; details: source organism: Mycobacterium tuberculosis
# [24] = target: HLA-B*57:01; assay: as above; details: source organism: Mycobacterium tuberculosis
# [25] = target: HLA-B*58:01; assay: as above; details: source organism: Mycobacterium tuberculosis
# [26] = target: HLA-A*69:01; assay: as above; details: source organism: Mycobacterium tuberculosis
# [27] = target: HLA-A*01:01; assay: as above; details: source organism: Mycobacterium tuberculosis
# [28] = target: HLA-B*44:02; assay: as above; details: source organism: Mycobacterium tuberculosis
# [29] = target: HLA-B*46:01; assay: as above; details: source organism: Mycobacterium tuberculosis
# [30] = target: HLA-C*05:01; assay: as above
# [31] = target: HLA-B*54:01; assay: IEDB peptide-MHC binding, purified MHC/competitive/radioactivity; filed as Kd, often an IC50 or EC50 that approximates it; ≥ and ≤ were set here for values at or beyond the usual limits of such assays; details: source organism: SARS coronavirus Tor2
# [32] = target: HLA-B*07:02; assay: as above; details: source organism: SARS coronavirus Tor2
# [33] = target: HLA-B*35:01; assay: as above; details: source organism: SARS coronavirus Tor2
# [34] = target: HLA-B*51:01; assay: as above; details: source organism: SARS coronavirus Tor2
# [35] = target: HLA-B*53:01; assay: as above; details: source organism: SARS coronavirus Tor2
# [36] = target: HLA-B*35:01; assay: IEDB peptide-MHC binding, purified MHC/competitive/fluorescence; filed as Kd, often an IC50 or EC50 that approximates it; ≥ and ≤ were set here for values at or beyond the usual limits of such assays
# [37] = target: HLA-A*26:01; assay: as above; details: source organism: Escherichia coli str. K-12 substr. MG1655
# [38] = target: HLA-A*01:01; assay: as above
# [39] = target: HLA-C*12:03; assay: IEDB peptide-MHC binding, purified MHC/direct/fluorescence; filed as Kd, often an IC50 or EC50 that approximates it; ≥ and ≤ were set here for values at or beyond the usual limits of such assays; details: source organism: Toxoplasma gondii RH
# [40] = target: HLA-A*68:02; assay: IEDB peptide-MHC binding, purified MHC/competitive/fluorescence; filed as Kd, often an IC50 or EC50 that approximates it; ≥ and ≤ were set here for values at or beyond the usual limits of such assays; details: source organism: Toxoplasma gondii RH
# [41] = source organism: Escherichia coli str. K-12 substr. MG1655
# [42] = source organism: Zaire ebolavirus
# [43] = source organism: Mycobacterium tuberculosis
# [44] = source organism: Shigella flexneri 5 str. 8401
# [45] = source organism: Salmonella enterica subsp. enterica serovar Typhi
# [46] = source organism: Alto Paraguay hantavirus
sequence,measurement,setting,value
KVGITGFCY,Kd,[1],2200 nM
same,Kd,[2]; [41],418 nM
same,Kd,[3]; [41],247 nM
IEVTNATEL,Kd,[4]; source organism: Influenza A virus,5.6 nM
YLPDPTVGV,Kd,[5],≥ 20000 nM
same,Kd,[6]; source organism: Mycobacterium tuberculosis C,≥ 20000 nM
HENARLRAL,Kd,[7],175 nM
same,Kd,[4]; source organism: Escherichia coli,4.8 nM
AKRYEKSAM,Kd,[8]; source organism: Yersinia pestis Antiqua,1050 nM
same,Kd,[9],≥ 20000 nM
STDIPSATK,IC50,[10],65600 nM
same,IC50,[11],1470 nM
same,IC50,[12]; source organism: Sudan ebolavirus,≥ 76400 nM
ASENSSAMV,IC50,[13],≥ 147000 nM
same,IC50,[12]; [42],43500 nM
IPNSLHSLS,IC50,[14]; source organism: Vaccinia virus Copenhagen,≥ 136000 nM
ISASLAALF,Kd,[2]; source organism: Bacillus anthracis str. A0488,1.7 nM
WMRGRGRAL,Kd,[15]; [43],≥ 20000 nM
same,Kd,[16],≥ 20000 nM
same,Kd,[17],≥ 20000 nM
same,Kd,[18],≥ 20000 nM
same,Kd,[19]; [43],≥ 20000 nM
same,Kd,[20],≥ 20000 nM
same,Kd,[21],≥ 20000 nM
same,Kd,[22],≥ 20000 nM
same,Kd,[23],≥ 20000 nM
same,Kd,[24],≥ 20000 nM
same,Kd,[25],≥ 20000 nM
same,Kd,[26],≥ 20000 nM
same,Kd,[27],≥ 20000 nM
same,Kd,[28],≥ 20000 nM
same,Kd,[29],≥ 20000 nM
GELESAIGL,Kd,[4]; [44],2.8 nM
same,Kd,[3]; [44],≥ 20000 nM
APYMVGDVI,Kd,[30]; source organism: SARS-CoV1,≥ 20000 nM
same,Kd,[31],≥ 27300 nM
same,Kd,[32],139 nM
same,Kd,[33],11000 nM
same,Kd,[34],80 nM
same,Kd,[35],3580 nM
VPSATKRWG,IC50,[14]; [42],64600 nM
RINEGWPAY,Kd,[1],42.2 nM
same,Kd,[36]; [41],59.2 nM
same,Kd,[37],≥ 20000 nM
same,Kd,[2]; [41],≥ 20000 nM
same,Kd,[3]; [41],84 nM
same,Kd,[38]; [41],481 nM
FAADKDSLY,Kd,[6]; source organism: Salmonella enterica subsp. enterica serovar Typhi str. CT18,≥ 20000 nM
same,Kd,[36]; [45],0.2 nM
same,Kd,[38]; [45],313 nM
FLDPHPYYV,Kd,[39],47 nM
same,Kd,[30]; source organism: Toxoplasma gondii RH,≤ 1 nM
same,Kd,[40],56.3 nM
KEISNQEPL,Kd,[15]; [46],357 nM
same,Kd,[19]; [46],3.2 nM
same,Kd,[8]; source organism: Orthohantavirus dobravaense,2070 nM
APPPQRAAM,Kd,[8]; source organism: Mycobacterium tuberculosis variant bovis BCG str. Pasteur 1173P2,61 nM
MENMLDLLM,Kd,[4]; source organism: Yersinia frederiksenii ATCC 33641,10.2 nM

# From the Immune Epitope Database (IEDB)
